Assay results as given in the DeepSol protein solubility set.

Assay: soluble on expression in E. coli; label from the status in PepcDB or PDB records

| Sequence | soluble on expression in E. coli |
| --- | --- |
| MATMSRRWNYFTPHYNDEGSIDVLDGKPPYIDLFDPLKQPLFQHLRSMHTEFSTTTADVNTTWEDASSTSSSNKGATIWFNEDAIDKSSRHEIGQSTVTHESEDDRFSFFNAVCTRLNSLQETKNSSETEEHAESPRKEKSSTPYGTDGFAPPPRSTQTNTLKVSNLPKRFESLYKKKRQQVATSDSSGFGSNASDFWSFERYGKSNQGTLERPNRLFTGTNNGFSTLQPKRRGSEAPKMTVELRYENDVPMVAKISANHAQSVTLRYFRHLFGLHYTDNCR | not soluble |
| MGSDKIHHHHHHMNIFDNILSSATIFKNRDVLRHSYTPEKLPHREEQINQLALLLSPMLRGGTPSNIFIYGKTGTGKTATVLFVARQLEEASRKAKLNVAVHYINCEIVDTAYRVLASLARKFGSNVPMTGWPTDQVYEEVKKALERRGTRVVVILDEIDKLVKKAEEALYGLTRINSELENSSICIVGISNNLKFKEYLDARILSSLSEEEIVFPPYNAEQLEDILQQRAKLAFEDGVLEDGVIQLCAAIAAQEHGDARKALDLLRVSAEIAERERDSMVRVEHVKKAVRKIETDYMIETVRTLPVHSKILLYSMSLISENSPKFTTGEVYCVYKKLCGKVGVDPLTQRRISDLISELDMLGILNSVVISKGRYGRTREMKLEADEKVLRKALEEDYRLQNLRKFEGELKKLANLNLFQF | not soluble |
| MKKTQSEPDQEAIRKIEELSQDLIEGLESYGARLLSVYAHGGILFSEQSEFLHQLVGGRRERIPLTFGTIASTIYSDRVIFGKETIEIRHESNERFAGMFGWKEYPSKTRPGMTDGLLTAPFEFILTQSFVFKSKAAASVIMGRKQNQMINAADRASSQIEALDEALDDLESNRFVLGEHHLSLAVFANHPKALAEYLSKARAHLTNGGAVIAREDLGLEAAWWAQLPGNFSYRARSGAITSRNFAALSPFHSFPIGKLEGNVWGTAVALLKTQAGSPYYFNFHYGDLGNTFVCGPSGSGKTVIVNFLLAQLQKHNPTMVFFDKDQGAEIFVRAGGGKYKPLKNGQPTGIAPLKGMEYTEKNKVFLRNWVLKLVTAEGQTVTEEERQDIAKAIDALGNLPHAQRSLSALQLFFDNTSKEGIAIRLQRWLKGNDLGWVFDNDQDDLNLDSQFIGYDMTDFLDNEEIRRPLMMYLFNRILDLIDGRRIIIVIDEFWKALEDDSFKAFAQDRLKTIRKQNGMMLFATQSPKDALNSTIAHTIIEQCPTQIFFPNQKANYKDYVEDFKLTEREFELIQSELSRESRRFLIKQGQSSVVAELNLRGMNDEIAVLSGTTKNIELVNQIISEYGADPDIWLPIFHQRRENQLEHHHHHH | soluble |
| MRLRHKPYAMDRINEYSHIVIGNPEERAGSWKEVFGNEQPIHIEVGTGRGRFMYDMAKANPHINYIGIEKFTSVVVDALDKLIEEELPNLKLINKDAEDLTVFFAKGEIDRVYLNFSDPWPKKRHTKRRLTYKTFLRNYEEVLVEGGEIHFKTDNQGLFEYSLMSMAEYGMLLTYLSLDLHNSDFEGNIMTEYEEKFSSKGHRIYRVEAKYRTEPMQ | not soluble |
| MGSDKIHHHHHHMKPVVVMTQTNDMQSDLVSIIHKPFIDIKPLNFDIHLLNQRYDWLIFSSKNAVKFFYKYLKGINVDNIAVIGSKTAQYCESLGIRVDFMPNDFSQEGFLKSFNQTNQKILLPSSELARPLLLAALSKDNEVVKIDLYTSVPNKQNIQDVKEMIEHQQIDALTFSSSSAVRYYFNEGFVPKFKSYFAIGEQTARTIKTYQQPVTIAEIQTLESLIEKILESRG | not soluble |
| MEEALKENIMGALEQVVDPELGVDIVNLGLVYDVDMDEDGLTHITMTLTSMGCPLAPIIVDEVKKALADLPEVKDTEVHIVWNPPWTRDKMSRYAKIALGIQLEHHHHHH | not soluble |
| MGSDKIHHHHHHMDLFSASFNPHQIAPLAERMRPRTLDDYIGQSEIIGKGKLLRRAIEADRVTSLILYGPPGTGKTSLAQVIANTTSSGFVRINAVAAGVKEIREIIQTATEQLHLYGKKTLVFCDEVHRFNKGQQDALLPAVENGTITFIGATTENPFFELNSALLSRSTLFRLQPLTAEDIRSGLAQALADKERGLGNYSVSIDPEAWEHWLNFANGDLRRALNALELAVLTTPPEQGVRRITLSVAEESIQQRAMRFDKNGDNHYDIVSAFIKSMRGSDPDAALYWLAVLLESGEDPRFIVRRIIVHASEDVGLADPMVMLQAHAAANALEWVGLPEARIPIAQAVLAIATAPKSNSTIMAIDRATGYVRSHPTGQVPAHLRDANYPGAKKMGHGKNYLYPHDYPGHWVEQGYLPQEVQGENFFTPSGTGQDRDNRGKPQVIPPSE | not soluble |
| MAHHHHHHMFAIRCPASMLWHPSVHHSLLLLRALEQPHTLLLDTHTASRGRLSVPLLSECAREVRIQTPPGHHEFDSPAGASTERSVLLYRAEDLLHIVNRPLSAGHDLGAACPTQSGVFASLLEYLEASTVSSHVISAIDALLVSLNTGDMETMRQTHACLVELIERLEASITDESLSEAHRTDQKEPLSTWPLFCTLQFLIEEGGMLTSAFPRTNKAYTRLCHSSKAVALHRRLVQRTVEQLLDVGSSANADVSQGARVEMNYPAKGFLREVQRHLASYNRSMEERTTDGVSGEKGPLNSRASGGRLGIQAVQARLPWTLQARPLRKG | soluble |
| MKTKNKILHANCLQLGGKGLLIIGPSGSGKSTLTLSLLDRAGWSKREAKLISDDYTMLRVENGKLQGSTPEGLQGGIEIRGVGLYTIEFEKQTTIDCVILLGPEYERFSTNQTFKFADLHIPLLKLPSLHEADCTAICQAIEAFFFRKVWLKSV | not soluble |
| MDGSMGEGGGQILRTAVALAAVLGRPLRIVNIRAKRRPPGLRPQHLTAVRAVAAISGGRLRGAEVGSTSLEFTPGRVRGGRYRFDVGTAGSVALIIQALAPLLAYSDSPVEVELTGGTDVPMAPTIDYMREVFASILAMLGYEIEIRVLRRGHYPRGGGRVVVRVPDPPGGFRARSFVERGPLKGVYVRSHAVKLPGSIAERQARSAASLVRERLGVDPIVEIEAYKPHRDPHLGPGTGVLVWAVFGETVMGGDSIGKKGKPAEVVGREAAESLLEDMATGAALDRHMSDMAPVYLALAGGVSTVFGARLTGHASTILELLRIMVDGFEYRILEGGLERPFKAELRGAGVSPR | soluble |
| MGSDKIHHHHHHNGDEKIDSGMVQQDGEVLQLNVRVGDFAINDVSSIRATDSGSTGTFENGDRIGIIVLDADNNVLSDNIPYRYDGNIWSFDSNNDEGKTTIYYDNKATVYLAYFPYSKEVDNVINIDDLKGKFLPQGDQRSKDAYRASDLLVWSDTSGRPLKKLDIVFEHAYSLLSLSPSIKCKINGRRDFTYVPSSISDVSFNVGTEPLFPYQMNDGSYQIIISPKRAKVRWLYEYNKEMYSGAMPDTDLSANTCYTFTPVLKDIGDYTLDKAQMGDFYCKDESNNGYLIPGDVTALSADMNCLGIVLKSGKDSEGEWVDYCKYKQKYGITEMHTVHGYVLALYDANGGNACTWGLWSLTDINRGEPSTGFYGYKNTQGIISFAENENRTLKNGFPPVYWVTDYEYSHPAPANSSGWFLPSLGQCWYWMYNKAYLLSAVNKATGDNDYGWKLGYWSSSEDDYDPFLNAYYADTYVGAMDWDYKNSKHCVRACLAF | not soluble |
| MLRLFKIQKAPLSQFSKASNEIVKDFIEKMEKAAGSGDKVKFSDCFTEDFQFFACSFTANKAQFVEKHLTNPNPEPVIPKYSNFDENDSKIKFTVSRRVGPEVNIVDFDLLRENDGPWRLQWGKVTTCP | not soluble |
| MKIRSQVGMVLNLDKCIGCHTCSVTCKNVWTGREGMEYAWFNNVETKPGIGYPKNWEDQQEWQGGWVRDVNGKIRPRLGGKMGVISKIFANPVIPQIDDYYEPFTFDYQHLHNAPESKHQPTARPRSLIDGKRMDKVIWGPNWEELLGGEFEKRARDRNFDNIQKEMYGQFENTFMMYLPRLCEHCLNPSCVATCPSGAIYKREEDGIVLIDQDKCRGWRLCISGCPYKKIYFNWKSGKSEKCIFCYPRIESGQPTVCSETCVGRIRYLGVLLYDADRIEEAASTEHETDLYERQCDVFLNPHDPAVIEEALKQGIPQNVIDAAQRSPVYKMAMDWKLALPLHPEYRTLPMVWYVPPLSPIQSYADAGGLPHNGNILPAVETLRIPVQYLANMLSAGDTGPVIRALKRMMAMRHYMRSQTVEGVTDTRAIEEVGLSIQQVEEMYRYLAIANYEDRFVIPTSHREMARDAFPERNGCGFTFGDGCHGSDTKFNLFNSSRIDAINITEVRDKAEGE | not soluble |
| MSVDLAHIRQVRAEADCLFNNDEVEAAIGRVAEAINRDLGETNPVVFCVMNGGLIFSGKLLPLLDFPLELSYLHATRYRNETSGGELFWKAKPEISFIDRDVLIIDDILDEGHTLSAIIDFCKHAGARAVHTAVLVDKEHERKARPDLKASFTGLYCADRYVFGYGMDYKGYWRNAAGIFAVKGL | not soluble |
| MQKAVVMDEQAIRRALTRIAHEIIERNKGIDGCVLVGIKTRGIYLARRLAERIEQIEGASVPVGELDITLYRDDLTVKTDDHEPLVKGTNVPFPVTERNVILVDDVLFTGRTVRAAMDAVMDLGRPARIQLAVLVDRGHRELPIRADFVGKNVPTSRSELIVVELSEVDGIDQVSIHEK | soluble |
| METASKRPKSGAAKKPAAAKARGDGPSYLDGQLLIAMPVMEDERFARSVIYICAHSSEGAMGIIVNRPAGSIDFPELLVQLDIVEKPEQIKLPDHAESMKVLRGGPVETGRGFVLHSSDFFIKDATLPIDDGICLTATVDILKAIAGGTGPKHAILALGYAGWAPGQLENEIQENGWLHCDADADLIFGDDIEEKYDRALHKLGIEPGMLSAEAGHALEHHHHHH | soluble |
| MGSDKIHHHHHHMSTPPVDVCYKVNAPLSSQQFVELLAKTSLGPRRPLDDETAITGMLKHANLLVSAWQGETLVGIARSVTDFHFCCYLSDLAVSDDFQHAGIGKKLIQQTAQQLGKGCKIILLAAPLAVDYYPKLGFEKHNSAWLMAASDLHSEA | not soluble |
| MGSSHHHHHHSSGLVPRGSSRRKSNCVKEVEKLQEKREKRRLQQQELREKRAQDVDATNPNYEIMCMIRDFRGSLDYRPLTTADPIDEHRICVCVRKRPLNKKETQMKDLDVITIPSKDVVMVHEPKQKVDLTRYLENQTFRFDYAFDDSAPNEMVYRFTARPLVETIFERGMATCFAYGQTGSGKTHTMGGDFSGKNQDCSKGIYALAARDVFLMLKKPNYKKLELQVYATFFEIYSGKVFDLLNRKTKLRVLEDGKQQVQVVGLQEREVKCVEDVLKLIDIGNSCRTSGQTSANAHSSRSHAVFQIILRRKGKLHGKFSLIDLAGNERGADTSSADRQTRLEGAEINKSLLALKECIRALGRNKPHTPFRASKLTQVLRDSFIGENSRTCMIATISPGMASCENTLNTLRYANRVKEL | soluble |
| MGSSHHHHHHSSGRENLYFQGHMHANIRYSFGGDEHLFAEVAEAMSLEAFFRGMAITRAIEALQLPGVLDVCLANASFQVRFDPDRLAPQALLETVRGLEAEAVAARSIETRIVEVPVLYNDPWTHETLMRFRDRHQDPDSTDLEYAARINGYADVQAFIQAHSGTPWFVSMVGFVAGLPFMYQMVERERQLQVPKYLRPRIDTPKLTLGHGGCFGCIYSVRGAGGYQMFGVTPAPIFDPRQGLPYLEESMVFFRAGDIVQFRPIERTEYEHMAAEVESGTFDLRIRPVSFDLDAFLADPRGCTQHLQEVLHVD | soluble |
| DRYCLTAPNYRLKSLQKKASTSAGRITVPRLSVGSVTSRPSTPTLGTPTPQTMSVSTKVGTPMSLTGQRFTVQMPTSQSPAVKASIPATSAVQNVLINPSLIGSKNILITTNMMSSQNTANESSNALKRKR | soluble |
